Measurements reported in the supplement of paper PMC10567573.

B1: RAD54B (parent)
chain: YVQEKRDGLKRRQQLEEELLRAKI

Variants of: B1
Assay: protein stability index of a GFP-peptide fusion (GPS, HEK-293T) (PSI 1-6); higher = more stable
Settings: c terminus: a fixed tail appended
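Note: lentivirally expressed fusions sorted by FACS into six bins by GFP to DsRed ratio, PSI derived from sequencing read proportions per bin multiplied by bin number.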

Protein stability index, by site and new letter:
K23: A 1.78; E 1.71; D 2.55; C 1.79; F 1.81
E17: I 2.45; T 2.08; F 1.87; D 2.01; C 2.21; K 1.9; Q 1.51; G 2.35; Y 1.36; N 2; V 2.25; M 2.21; R 2.44; W 1.9; S 2.15; A 1.6; P 1.98; L 2.19; H 1.84
A22: W 2; K 1.82; I 2.32; H 1.52; D 2.29; S 2.16; C 1.83; T 1.98; R 1.83; Y 1.81; N 2.01; G 1.89; V 2.45; L 1.99; F 2.06; P 1.68; M 2.27; E 2.92; Q 2
Q13: L 2.32; A 2.23; W 1.98; H 2.06; P 2.17; Y 1.9; C 1.84; E 2.41; R 1.71; M 2.07; T 2.32; D 2.3; V 2.4; F 1.62; G 2.31; K 1.46; S 1.69; I 2.49; N 1.91
L19: N 2.14; P 2.34; M 2.06; K 2.42; V 1.7; W 2.17; E 1.95; T 1.75; H 2.16; S 2.45; R 2.38; C 1.95; Q 1.78; F 2.37; D 2.3; I 1.88; Y 1.55; G 2.54; A 1.96
L15: Q 1.7; E 2.61; A 1.93; R 1.99; M 2.56; T 1.55; G 1.75; W 1.49; I 2.32; Y 2.44; D 2.09; N 2.05; K 2.05; C 1.87; S 1.95; F 1.4; P 1.51; H 2.38; V 1.48
R6: Q 2.39; H 2.1; V 2.23; N 2.31; E 3.26; K 1.96; W 2.07; P 1.94; S 1.75; M 2.12; D 2.87; L 2.46; F 2.14; Y 2.18; G 2.39; C 2.32; T 2.49; I 2.66; A 2.26
K10: I 1.97; D 2.04; Q 2.5; P 2.55; H 2.4; N 2.41; E 2.58; C 1.83; W 1.47; M 2.46; S 2.49; T 2.5; A 2.04; R 1.98; G 2.28; L 2.28; F 1.6; V 2.9; Y 1.77
R12: I 1.99; E 2.34; W 1.89; V 2.04; F 2.28; G 2.25; T 2.19; M 2.02; H 2.18; C 2.25; Q 2.35; K 2.47; P 1.96; A 1.85; D 3.23; N 2.41; S 2.06; L 1.98; Y 2.01
L20: C 1.59; P 1.78; N 1.94; D 1.97; K 2.19; V 1.49; W 2.08; F 1.3; G 2.08; I 1.76
